Starred links: 1 amine or outer side, 2 acyl side, 3 side chain; linkers in the order of their positions; H or OH if unused. Non-standard residues stand in square brackets, D forms with d. Primed or numbered codes have the meaning given here. *: point of attachment. NPipG = 2-(piperidin-4-ylamino)acetic acid, O=C(CN(C1CCN([*:3])CC1)[*:1])[*:2]; AC4Abu = α-carboxy-4-aminobutyric acid, O=C(C(CCN[*:1])C(=O)[*:3])[*:2]; dBip = N[C@H](Cc1ccc(-c2ccccc2)cc1)C(=O)O; Oic = O=C(O)[C@@H]1C[C@@H]2CCCC[C@@H]2N1; Phe(4-Cl) = N[C@@H](Cc1ccc(Cl)cc1)C(=O)O; Phe(4-I) = N[C@@H](Cc1ccc(I)cc1)C(=O)O; γGlu = O=C(O)[C@H](CCC(=O)[*:2])N[*:1]; HOOC(CH2)8CO = O=C(O)CCCCCCCCC(=O)*; d(β3hF) = N[C@@H](CC(=O)O)Cc1ccccc1; NMeR = CN[C@@H](CCCNC(=N)N)C(=O)O; Palmitoyl = CCCCCCCCCCCCCCCC(=O)*; hArg = N=C(N)NCCCC[C@H](N)C(=O)O; Tic = O=C(O)[C@@H]1Cc2ccccc2CN1; dTic = O=C(O)[C@H]1Cc2ccccc2CN1; β3hF = N[C@H](CC(=O)O)Cc1ccccc1; Cha = N[C@@H](CC1CCCCC1)C(=O)O; NMeL = CN[C@@H](CC(C)C)C(=O)O; Aic = NC1(C(=O)O)Cc2ccccc2C1; β3hP = O=C(O)C[C@@H]1CCCN1; Pip = O=C(O)[C@@H]1CCCCN1; Nle = CCCC[C@H](N)C(=O)O; Orn = NCCC[C@H](N)C(=O)O; Pip′ = not defined here; AEEA = NCCOCCOCC(=O)O; Aib = CC(C)(N)C(=O)O; Inp = O=C(O)C1CCNCC1; Nip = nipecotic acid
T1: rat APJ receptor (rat, UniProt Q9JHG3 1-377)
T1 sequence (looked up): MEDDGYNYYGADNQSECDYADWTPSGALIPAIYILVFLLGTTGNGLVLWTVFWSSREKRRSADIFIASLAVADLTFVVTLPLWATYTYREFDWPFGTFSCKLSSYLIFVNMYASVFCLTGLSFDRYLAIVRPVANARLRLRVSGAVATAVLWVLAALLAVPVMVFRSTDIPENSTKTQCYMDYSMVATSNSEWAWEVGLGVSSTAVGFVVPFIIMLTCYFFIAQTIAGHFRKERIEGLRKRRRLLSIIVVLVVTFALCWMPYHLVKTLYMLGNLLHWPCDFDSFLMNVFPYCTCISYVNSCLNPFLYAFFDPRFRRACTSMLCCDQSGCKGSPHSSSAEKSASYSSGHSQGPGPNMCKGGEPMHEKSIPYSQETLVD

T2: human APJ receptor (human, UniProt P35414 1-380)
T2 sequence (looked up): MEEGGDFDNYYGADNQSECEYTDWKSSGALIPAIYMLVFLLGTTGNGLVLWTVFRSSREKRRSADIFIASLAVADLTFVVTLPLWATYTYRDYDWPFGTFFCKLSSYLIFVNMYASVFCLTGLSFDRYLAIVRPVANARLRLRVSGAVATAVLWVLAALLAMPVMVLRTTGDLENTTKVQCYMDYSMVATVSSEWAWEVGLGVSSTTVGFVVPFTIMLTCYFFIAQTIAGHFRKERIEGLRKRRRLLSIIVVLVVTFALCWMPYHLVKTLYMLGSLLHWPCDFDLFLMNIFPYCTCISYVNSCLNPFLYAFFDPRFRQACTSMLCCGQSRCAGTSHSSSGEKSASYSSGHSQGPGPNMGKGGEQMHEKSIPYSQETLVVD


What was measured:
[1] = molecular target: T1, rat APJ receptor; assay: cell-based or functional assay
[2] = molecular target: T2, human APJ receptor; assay: cell-based or functional assay

Row | EC50 Rat APJ Receptor [1] [nM] | EC50 Human APJ Receptor [2] [nM] | Binder
1 | 5.85 | 1.4 | Palmitoyl-[AC4Abu][AEEA][AEEA][dQ]RP[NMeR][Cha]SHKG[Pip][Aib][Phe(4-Cl)]-OH (SMILES CCCCCCCCCCCCCCCC(=O)NCCC(C(=O)O)C(=O)NCCOCCOCC(=O)NCCOCCOCC(=O)N[C@H](CCC(N)=O)C(=O)N[C@@H](CCCNC(=N)N)C(=O)N1CCC[C@H]1C(=O)N(C)[C@@H](CCCNC(=N)N)C(=O)N[C@@H](CC1CCCCC1)C(=O)N[C@@H](CO)C(=O)N[C@@H](Cc1c[nH]cn1)C(=O)N[C@@H](CCCCN)C(=O)NCC(=O)N1CCCC[C@H]1C(=O)NC(C)(C)C(=O)N[C@@H](Cc1ccc(Cl)cc1)C(=O)O) [SEQ ID NO: 581]
2 | 1.01 | 0.44 | Palmitoyl-[AC4Abu][AEEA][AEEA][dQ]RP[NMeR][Cha]SHKG[Pip][Nle]P[dTic]-OH (SMILES CCCCCCCCCCCCCCCC(=O)NCCC(C(=O)O)C(=O)NCCOCCOCC(=O)NCCOCCOCC(=O)N[C@H](CCC(N)=O)C(=O)N[C@@H](CCCNC(=N)N)C(=O)N1CCC[C@H]1C(=O)N(C)[C@@H](CCCNC(=N)N)C(=O)N[C@@H](CC1CCCCC1)C(=O)N[C@@H](CO)C(=O)N[C@@H](Cc1c[nH]cn1)C(=O)N[C@@H](CCCCN)C(=O)NCC(=O)N1CCCC[C@H]1C(=O)N[C@@H](CCCC)C(=O)N1CCC[C@H]1C(=O)N1Cc2ccccc2C[C@@H]1C(=O)O) [SEQ ID NO: 599]
3 | 38.5 | 38.6 | {HOOC(CH2)8CO}-[γGlu][AEEA][AEEA]Q[hArg]P[dR][NMeL]SHKG[Oic][Phe(4-I)]P[dBip]-OH (SMILES CC(C)C[C@@H](C(=O)N[C@@H](CO)C(=O)N[C@@H](Cc1c[nH]cn1)C(=O)N[C@@H](CCCCN)C(=O)NCC(=O)N1[C@H](C(=O)N[C@@H](Cc2ccc(I)cc2)C(=O)N2CCC[C@H]2C(=O)N[C@H](Cc2ccc(-c3ccccc3)cc2)C(=O)O)C[C@@H]2CCCC[C@@H]21)N(C)C(=O)[C@@H](CCCNC(=N)N)NC(=O)[C@@H]1CCCN1C(=O)[C@H](CCCCNC(=N)N)NC(=O)[C@H](CCC(N)=O)NC(=O)COCCOCCNC(=O)COCCOCCNC(=O)CC[C@H](NC(=O)CCCCCCCCC(=O)O)C(=O)O) [SEQ ID NO: 288]
4 | 5.83 | 1.58 | Palmitoyl-[AC4Abu][AEEA][AEEA][dQ]RP[NMeR][Cha]SHKG[Pip′][Nle]P[β3hF]-OH [SEQ ID NO: 647]
5 | 3.76 | 1.14 | {HOOC(CH2)8CO}-[γGlu][AEEA][AEEA][hArg]Q[hArg]P[NMeR][Cha]SHKG[Oic][Nle]P[Phe(4-Cl)]-OH (SMILES CCCC[C@H](NC(=O)[C@@H]1C[C@@H]2CCCC[C@@H]2N1C(=O)CNC(=O)[C@H](CCCCN)NC(=O)[C@H](Cc1c[nH]cn1)NC(=O)[C@H](CO)NC(=O)[C@H](CC1CCCCC1)NC(=O)[C@H](CCCNC(=N)N)N(C)C(=O)[C@@H]1CCCN1C(=O)[C@H](CCCCNC(=N)N)NC(=O)[C@H](CCC(N)=O)NC(=O)[C@H](CCCCNC(=N)N)NC(=O)COCCOCCNC(=O)COCCOCCNC(=O)CC[C@H](NC(=O)CCCCCCCCC(=O)O)C(=O)O)C(=O)N1CCC[C@H]1C(=O)N[C@@H](Cc1ccc(Cl)cc1)C(=O)O) [SEQ ID NO: 474]
6 | 2.84 | 0.463 | Palmitoyl-[AC4Abu][AEEA][AEEA][dQ]RP[NMeR][Cha]SHKG[Pip][Nle]P[Tic]-OH (SMILES CCCCCCCCCCCCCCCC(=O)NCCC(C(=O)O)C(=O)NCCOCCOCC(=O)NCCOCCOCC(=O)N[C@H](CCC(N)=O)C(=O)N[C@@H](CCCNC(=N)N)C(=O)N1CCC[C@H]1C(=O)N(C)[C@@H](CCCNC(=N)N)C(=O)N[C@@H](CC1CCCCC1)C(=O)N[C@@H](CO)C(=O)N[C@@H](Cc1c[nH]cn1)C(=O)N[C@@H](CCCCN)C(=O)NCC(=O)N1CCCC[C@H]1C(=O)N[C@@H](CCCC)C(=O)N1CCC[C@H]1C(=O)N1Cc2ccccc2C[C@H]1C(=O)O) [SEQ ID NO: 598]
7 | 3.37 | 0.885 | Palmitoyl-[AC4Abu][AEEA][AEEA][dQ]RP[NMeR][Cha]SHKG[Pip][Nle][Aic]-OH (SMILES CCCCCCCCCCCCCCCC(=O)NCCC(C(=O)O)C(=O)NCCOCCOCC(=O)NCCOCCOCC(=O)N[C@H](CCC(N)=O)C(=O)N[C@@H](CCCNC(=N)N)C(=O)N1CCC[C@H]1C(=O)N(C)[C@@H](CCCNC(=N)N)C(=O)N[C@@H](CC1CCCCC1)C(=O)N[C@@H](CO)C(=O)N[C@@H](Cc1c[nH]cn1)C(=O)N[C@@H](CCCCN)C(=O)NCC(=O)N1CCCC[C@H]1C(=O)N[C@@H](CCCC)C(=O)NC1(C(=O)O)Cc2ccccc2C1) [SEQ ID NO: 597]
8 | 0.532 | 0.0829 | XXXQRPRLSHKGPXPF ({PDA}[AC4Abu][Aeea][Aeea]QRP[NMeArg]LSHKGP[Nle]P[4-Cl-F]{COOH}) [SEQ ID NO: 495]
9 | 2.5 | 0.831 | Palmitoyl-[AC4Abu][AEEA][AEEA][dQ]RP[NMeR][Cha]SHKG[Pip][Nle][β3hF]-OH (SMILES CCCCCCCCCCCCCCCC(=O)NCCC(C(=O)O)C(=O)NCCOCCOCC(=O)NCCOCCOCC(=O)N[C@H](CCC(N)=O)C(=O)N[C@@H](CCCNC(=N)N)C(=O)N1CCC[C@H]1C(=O)N(C)[C@@H](CCCNC(=N)N)C(=O)N[C@@H](CC1CCCCC1)C(=O)N[C@@H](CO)C(=O)N[C@@H](Cc1c[nH]cn1)C(=O)N[C@@H](CCCCN)C(=O)NCC(=O)N1CCCC[C@H]1C(=O)N[C@@H](CCCC)C(=O)N[C@H](CC(=O)O)Cc1ccccc1) [SEQ ID NO: 579]
10 | 6.2 | 0.816 | Palmitoyl-[AC4Abu][AEEA][AEEA][dQ]RP[NMeR][Cha]SHKG[Pip][Nle]P[Aic]-OH (SMILES CCCCCCCCCCCCCCCC(=O)NCCC(C(=O)O)C(=O)NCCOCCOCC(=O)NCCOCCOCC(=O)N[C@H](CCC(N)=O)C(=O)N[C@@H](CCCNC(=N)N)C(=O)N1CCC[C@H]1C(=O)N(C)[C@@H](CCCNC(=N)N)C(=O)N[C@@H](CC1CCCCC1)C(=O)N[C@@H](CO)C(=O)N[C@@H](Cc1c[nH]cn1)C(=O)N[C@@H](CCCCN)C(=O)NCC(=O)N1CCCC[C@H]1C(=O)N[C@@H](CCCC)C(=O)N1CCC[C@H]1C(=O)NC1(C(=O)O)Cc2ccccc2C1) [SEQ ID NO: 590]
11 | 11.1 | 2.47 | Palmitoyl-[γGlu][AEEA][AEEA][dQ]RP[NMeR][Cha]SH[Orn]G[Oic][Nle][β3hP][d(β3hF)]-OH (SMILES CCCCCCCCCCCCCCCC(=O)N[C@@H](CCC(=O)NCCOCCOCC(=O)NCCOCCOCC(=O)N[C@H](CCC(N)=O)C(=O)N[C@@H](CCCNC(=N)N)C(=O)N1CCC[C@H]1C(=O)N(C)[C@@H](CCCNC(=N)N)C(=O)N[C@@H](CC1CCCCC1)C(=O)N[C@@H](CO)C(=O)N[C@@H](Cc1c[nH]cn1)C(=O)N[C@@H](CCCN)C(=O)NCC(=O)N1[C@H](C(=O)N[C@@H](CCCC)C(=O)N2CCC[C@H]2CC(=O)N[C@@H](CC(=O)O)Cc2ccccc2)C[C@@H]2CCCC[C@@H]21)C(=O)O) [SEQ ID NO: 618]
12 | 0.395 | 0.254 | Palmitoyl-[AC4Abu][AEEA][AEEA][dQ]RP[NPipG][Cha]SHKG[Pip′][Nle][Aib][Phe(4-Cl)]-OH [SEQ ID NO: 645]
13 | 2.83 | 0.652 | Palmitoyl-[AC4Abu][AEEA][AEEA][dQ]RP[NMeR][Cha]SHKG[Pip′][Nle][d(β3hF)]-OH [SEQ ID NO: 574]
14 | 0.171 | 0.0475 | XXXQRPRLSHKGPXPF ({pIFBu}[AC4Abu][Aeea][Aeea]QRP[NMeArg]LSHKGP[Nle]P[4-Cl-F]{COOH}) [SEQ ID NO: 118]
15 | 6.37 | 1.52 | Palmitoyl-[AC4Abu][AEEA][AEEA][dQ]RP[NMeR][Cha]SHKG[Pip][Nle][Nip][Phe(4-Cl)]-OH [SEQ ID NO: 588]
16 | 4.15 | 0.624 | Palmitoyl-[AC4Abu][AEEA][AEEA]QRP[NMeR][Cha]SHKG[Pip][Nle][Inp][Phe(4-Cl)]-OH (SMILES CCCCCCCCCCCCCCCC(=O)NCCC(C(=O)O)C(=O)NCCOCCOCC(=O)NCCOCCOCC(=O)N[C@@H](CCC(N)=O)C(=O)N[C@@H](CCCNC(=N)N)C(=O)N1CCC[C@H]1C(=O)N(C)[C@@H](CCCNC(=N)N)C(=O)N[C@@H](CC1CCCCC1)C(=O)N[C@@H](CO)C(=O)N[C@@H](Cc1c[nH]cn1)C(=O)N[C@@H](CCCCN)C(=O)NCC(=O)N1CCCC[C@H]1C(=O)N[C@@H](CCCC)C(=O)N1CCC(C(=O)N[C@@H](Cc2ccc(Cl)cc2)C(=O)O)CC1) [SEQ ID NO: 589]
